{
  "source": "paper PMC5010387",
  "biological_target": "ClC-ec1 C85A/H234C labelled with Cy5 (WT-Cy5) (Escherichia coli) (UniProt P37019)",
  "test": "single-molecule photobleaching of subunits captured into liposomes (TIRF); high-density proteoliposomes (χ = 7.5 × 10^-6 subunit/lipid) diluted 10X to 1000X by freeze/thaw fusion with empty 2:1 POPE/POPG vesicles, incubated at room temperature, time course after freeze/thaw",
  "data": [
    {"substance": "ClC-ec1 C85A/H234C labelled with Cy5 (WT-Cy5) (from UniProt P37019 1-473) (natural protein)", "values": [
      {"measurement": "mid-point of the convergence of the 1000X diluted sample to the reconstituted probabilities", "value": 13, "unit": "days"}
    ]}
  ]
}
